Where two headings read alike, the source gives them in different places.
Legend:
[1] = target: IVIg (Octagam), pool of human IgG (human); test: cell-based or functional assay
[2] = target: IVIg (Octagam), pool of human IgG (human); test: cell-based or functional assay; remark: listed apart in the source

**Q.** Which 2nd IgG heavy chain scIgG to F(ab')2, Conc. of enzyme (ng/ml), gel [1] does the source give for “pCART124 (IdeS control with N terminal methionine and histidine tag) (enzyme)” here?
**A.** 6000 ng/mL

**Q.** And the 1st IgG heavy chain IgG to scIgG, Conc. of enzyme (ng/ml), gel [2]?
**A.** 1900 ng/mL

**Q.** And the 2nd IgG heavy chain scIgG to F(ab')2, Conc. of enzyme (ng/ml), gel [2]?
**A.** 7500 ng/mL

Source: US20250304937A1
